Paper PMC5379935, “Crystal structure and RNA-binding properties of an Hfq homolog from the deep-branching Aquificae: conservation of the lateral RNA-binding mode” (Acta Crystallographica. Section D, Structural Biology, 2016)

Legend:
[1] = biological target: the molecule itself; assay: SEC-MALS; Superdex 200 Increase 10/300 GL, 50 mM Tris pH 8.0, 200 mM NaCl; Aae Hfq alone; monodisperse peak
[2] = biological target: the molecule itself; assay: cross-linking; formaldehyde, indirect (vapor-diffusion) method, 0.6 mg/ml Hfq in 25 mM HEPES pH 8.0, 500 mM NaCl, 310 K, 40 min; read out by MALDI-TOF MS
Aae Hfq [3] = biological target: T1, Aae Hfq (Aquifex aeolicus, UniProt O66512 1-80); assay: fluorescence polarization; no Mg2+; per hexamer; 4-parameter fit, Hill 2.2; FP: 50 mM Tris pH 8.0, 500 mM NaCl, 5 nM FAM-RNA, +/- 10 mM MgCl2, 45 min, room temperature; conditions: protein: recombinant; tags: 6xHis removed by thrombin; residual N-terminal G-2 S-1 H0; chain copies: 6; label: 5'-FAM; single strand
T1 sequence: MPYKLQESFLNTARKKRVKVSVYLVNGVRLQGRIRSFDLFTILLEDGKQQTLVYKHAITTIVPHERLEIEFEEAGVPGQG

Aae Hfq [4] = biological target: T1, Aae Hfq; assay: fluorescence polarization; 10 mM Mg2+; per hexamer; 4-parameter fit, Hill 2.4; FP: 50 mM Tris pH 8.0, 500 mM NaCl, 5 nM FAM-RNA, +/- 10 mM MgCl2, 45 min, room temperature; conditions: protein: recombinant; tags: 6xHis removed by thrombin; residual N-terminal G-2 S-1 H0; chain copies: 6; label: 5'-FAM; single strand
Aae Hfq [5] = biological target: T1, Aae Hfq; assay: fluorescence polarization; no significant binding detected; FP: 50 mM Tris pH 8.0, 500 mM NaCl, 5 nM FAM-RNA, +/- 10 mM MgCl2, 45 min, room temperature; conditions: protein: recombinant; tags: 6xHis removed by thrombin; residual N-terminal G-2 S-1 H0; chain copies: 6; label: FAM; single strand
Aae Hfq [6] = biological target: T1, Aae Hfq; assay: fluorescence polarization; no Mg2+; per hexamer; 4-parameter fit, Hill 1.3; FP: 50 mM Tris pH 8.0, 500 mM NaCl, 5 nM FAM-RNA, +/- 10 mM MgCl2, 45 min, room temperature; conditions: protein: recombinant; tags: 6xHis removed by thrombin; residual N-terminal G-2 S-1 H0; chain copies: 6; label: 5'-FAM; single strand
Aae Hfq [7] = biological target: T1, Aae Hfq; assay: fluorescence polarization; 10 mM Mg2+; per hexamer; 4-parameter fit, Hill 1.7; FP: 50 mM Tris pH 8.0, 500 mM NaCl, 5 nM FAM-RNA, +/- 10 mM MgCl2, 45 min, room temperature; conditions: protein: recombinant; tags: 6xHis removed by thrombin; residual N-terminal G-2 S-1 H0; chain copies: 6; label: 5'-FAM; single strand

B1: Aquifex aeolicus Hfq (working construct after proteolytic removal of the 6xHis tag, 83 amino acids) (natural protein)
chain: GSHMPYKLQESFLNTARKKRVKVSVYLVNGVRLQGRIRSFDLFTILLEDGKQQTLVYKHAITTIVPHERLEIEFEEAGVPGQG
notes: three plasmid-derived residues (G-2, S-1, H0) that remain at the N-terminus after thrombin cleavage of the 6xHis tag; 83 residues, 9482.9 Da after tag removal (cleaved at G-2); Hexameric ring; two rings stack into a dodecamer in the P1 crystal, on cross-linking, and in solution with A18 RNA; also called Aae Hfq; (Hfq)6; not shown: His6, N-terminal, cleaved
With B1 the “stoichiometry N” value [1] was 6 and the “stoichiometry N” value [2] was 12.

AAAAAAAAAAAAAAAAAA (ssRNA) [FAM-A18] was tested, and the Kd (Aae Hfq [3]) was 17.4 nM and the Kd (Aae Hfq [4]) was 9.5 nM.

AAAAAA (ssRNA) [FAM-A6]: no binding (Aae Hfq [5]).

CCCCCC (ssRNA) [FAM-C6]: no binding (Aae Hfq [5]).

UUUUUU (ssRNA) [FAM-U6] showed a Kd (Aae Hfq [6]) of 21.3 nM and a Kd (Aae Hfq [7]) of 2.1 nM.
